Measurements as given in patent publication US20140377774.

Target: T1, wild-type yeast Ugp1
T1 chain: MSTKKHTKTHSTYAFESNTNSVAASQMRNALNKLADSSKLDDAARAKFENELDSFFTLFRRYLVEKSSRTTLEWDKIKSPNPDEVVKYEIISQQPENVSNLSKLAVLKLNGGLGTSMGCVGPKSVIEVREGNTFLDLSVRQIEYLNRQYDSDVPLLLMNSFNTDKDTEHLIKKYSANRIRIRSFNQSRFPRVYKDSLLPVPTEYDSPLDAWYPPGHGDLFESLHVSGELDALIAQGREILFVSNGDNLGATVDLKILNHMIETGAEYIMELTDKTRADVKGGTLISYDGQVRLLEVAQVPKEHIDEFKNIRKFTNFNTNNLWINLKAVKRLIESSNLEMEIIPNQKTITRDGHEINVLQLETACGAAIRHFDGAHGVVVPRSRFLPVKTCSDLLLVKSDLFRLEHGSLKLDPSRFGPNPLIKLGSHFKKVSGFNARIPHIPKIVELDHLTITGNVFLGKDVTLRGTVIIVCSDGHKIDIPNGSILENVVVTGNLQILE

B1: human PASK (protein)
chain: MEDGGLTAFEEDQRCLSQSLPLPVSAEGPAAQTTAEPSRSFSSAHRHLSRRNGLSRLCQSRTALSEDRWSSYCLSSLAAQNICTSKLHCPAAPEHTDPSEPRGSVSCCSLLRGLSSGWSSPLLPAPVCNPNKAIFTVDAKTTEILVANDKACGLLGYSSQDLIGQKLTQFFLRSDSDVVEALSEEHMEADGHAAVVFGTVVDIISRSGEKIPVSVWMKRMRQERRLCCVVVLEPVERVSTWVAFQSDGTVTSCDSLFAHLHGYVSGEDVAGQHITDLIPSVQLPPSGQHIPKNLKIQRSVGRARDGTTFPLSLKLKSQPSSEEATTGEAAPVSGYRASVWVFCTISGLITLLPDGTIHGINHSFALTLFGYGKTELLGKNITFLIPGFYSYMDLAYNSSLQLPDLASCLDVGNESGCGERTLDPWQGQDPAEGGQDPRINVVLAGGHVVPRDEIRKLMESQDIFTGTQTELIAGGQLLSCLSPQPAPGVDNVPEGSLPVHGEQALPKDQQITALGREEPVAIESPGQDLLGESRSEPVDVKPFASCEDSEAPVPAEDGGSDAGMCGLCQKAQLERMGVSGPSGSDLWAGAAVAKPQAKGQLAGGSLLMHCPCYGSEWGLWWRSQDLAPSPSGMAGLSFGTPTLDEPWLGVENDREELQTCLIKEQLSQLSLAGALDVPHAELVPTECQAVTAPVSSCDLGGRDLCGGCTGSSSACYALATDLPGGLEAVEAQEVDVNSFSWNLKELFFSDQTDQTSSNCSCATSELRETPSSLAVGSDPDVGSLQEQGSCVLDDRELLLLTGTCVDLGQGRRFRESCVGHDPTEPLEVCLVSSEHYAASDRESPGHVPSTLDAGPEDTCPSAEEPRLNVQVTSTPVIVMRGAAGLQREIQEGAYSGSCYHRDGLRLSIQFEVRRVELQGPTPLFCCWLVKDLLHSQRDSAARTRLFLASLPGSTHSTAAELTGPSLVEVLRARPWFEEPPKAVELEGLAACEGEYSQKYSTMSPLGSGAFGFVWTAVDKEKNKEVVVKFIKKEKVLEDCWIEDPKLGKVTLEIAILSRVEHANIIKVLDIFENQGFFQLVMEKHGSGLDLFAFIDRHPRLDEPLASYIFRQLVSAVGYLRLKDIIHRDIKDENIVIAEDFTIKLIDFGSAAYLERGKLFYTFCGTIEYCAPEVLMGNPYRGPELEMWSLGVTLYTLVFEENPFCELEETVEAAIHPPYLVSKELMSLVSGLLQPVPERRTTLEKLVTDPWVTQPVNLADYTWEEVFRVNKPESGVLSAASLEMGNRSLSDVAQAQELCGGPVPGEAPNGQGCLHPGDPRLLTS
Q: With B1 as the protein, how does the “Ugp1 phosphorylation (Western blot with phospho-specific Ugp1 antibody)” value read?
A: transfected with human PASK and wild-type yeast Ugp1 (to promote phosphorylation) (lane 1) ... the phospho-Ugp1 band in lane 1
